Drawing on the supplement of paper PMC10567573, this text covers protein stability index for 104 variants.

B1: ZBED2 (parent)
chain: RAGHHPNQYATCRLCGRQVSRGPG
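Note: lentivirally expressed fusions sorted by FACS into six bins by GFP to DsRed ratio, PSI derived from sequencing read proportions per bin multiplied by bin number.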

The variants in the series derive from B1. As to the kind of experiment: protein stability index of a GFP-peptide fusion (GPS, HEK-293T) (PSI 1-6); higher = more stable. Conditions: c terminus: a fixed tail appended.
For the variant RAGHHPNQYATCRLCGRQVWRGPG [S20W], the protein stability index is 1.59.
RAGHHPNQYATCRLCGRQVERGPG [S20E]: the protein stability index is 2.88.
With RAGHHPNQYATCRLCGRWVSRGPG [Q18W], the protein stability index was 1.27.
In the case of RAGHHPNQYATCRLCGRYVSRGPG [Q18Y], the protein stability index was determined as 2.51.
For RAGHHPNQYATCRLCGRHVSRGPG [Q18H] the value was 2.59.
Turning to RAGHHPNQYATCRLCGRAVSRGPG [Q18A], the protein stability index is 2.44.
Turning to RAGHHPNQYATCRLCGRQFSRGPG [V19F], the protein stability index came out at 2.08.
Next, RAGHHPNQYATCRLCGRQTSRGPG [V19T]: 2.22; RAGHHPNQYATCRLCGRQCSRGPG [V19C]: 3.7.
Turning to RAGHHPNQYATCRLCGRQGSRGPG [V19G], the protein stability index was 2.53.
RAGHHPNQYATCRLCGRQVSRGSG [P23S]: the protein stability index is 2.05.
As to RAGHHPNQYATCRLCGRQVSRGHG [P23H], the protein stability index was found to be 2.54.
For the variant RAGHHPNQYATCRLCGRQVSRGNG [P23N], the protein stability index stood at 1.88.
Next, RAGHHPNQYATCRLCGRQVSRGIG [P23I]: 2.27; RAGHHPNQYATCRLCGRQVSRGVG [P23V]: 1.84.
Consider RAGHHPNQYATCRLCGRQVSRGFG [P23F], for which the protein stability index was determined as 1.54.
For RAGHHPNQYATCRLCGEQVSRGPG [R17E] the value was 1.93; for RAGHHPNQYATCRLCGFQVSRGPG [R17F], 1.96; for RAGHHPNQYATCRLCGTQVSRGPG [R17T], 2.26.
Take RAGHHPNQYATCRLCGCQVSRGPG [R17C]: the protein stability index was found to be 1.91.
With RAGHHPNQYATCRLCGAQVSRGPG [R17A], the protein stability index was found to be 1.69.
Consider RAGHHPNQYATCRLCGSQVSRGPG [R17S], for which the protein stability index amounted to 1.79.
Next, RAGHHPNQYATCRLCGQQVSRGPG [R17Q]: 1.3; RAGHHPKQYATCRLCGRQVSRGPG [N7K]: 1.81; RAGHHPMQYATCRLCGRQVSRGPG [N7M]: 2.04.
With RAGHHPNQYATCRTCGRQVSRGPG [L14T], the protein stability index is 1.49.
On to RAGHHPNQYATCRKCGRQVSRGPG [L14K], for which the protein stability index worked out at 2.66.
Consider RAGHHPNQYATCRWCGRQVSRGPG [L14W], for which the protein stability index came to 2.12.
Take RAGHHPNQYATCRHCGRQVSRGPG [L14H]: the protein stability index came out at 1.75.
As to RAGHHPNQYATCRACGRQVSRGPG [L14A], the protein stability index was 1.78.
For RAGHHPNSYATCRLCGRQVSRGPG [Q8S] the value was 1.05; for RAGHHPNYYATCRLCGRQVSRGPG [Q8Y], 1.13; for RAGHHPNPYATCRLCGRQVSRGPG [Q8P], 2.03.
On to RAGHHPNQYATCRLCERQVSRGPG [G16E], for which the protein stability index is 2.46.
Regarding RAGHHPNQYATCRLCYRQVSRGPG [G16Y], the protein stability index is 3.58.
Take RAGHHPNQYATCRLCKRQVSRGPG [G16K]: the protein stability index worked out at 1.51.
Next, RAGHHPNQYATCRLCTRQVSRGPG [G16T]: 1.41.
RAGHHPNQYATCRLCQRQVSRGPG [G16Q]: the protein stability index is 1.81.
In the case of RAGHHPNQYATCRLCPRQVSRGPG [G16P], the protein stability index came to 2.41.
RAGHHPNQYATCRLCCRQVSRGPG [G16C]: the protein stability index is 1.25.
Turning to RAGHHPNQIATCRLCGRQVSRGPG [Y9I], the protein stability index was 2.06.
Turning to RAGDHPNQYATCRLCGRQVSRGPG [H4D], the protein stability index is 2.09.
On to RAGTHPNQYATCRLCGRQVSRGPG [H4T], for which the protein stability index was 2.78.
As for RAGRHPNQYATCRLCGRQVSRGPG [H4R], the protein stability index stood at 1.12.
For RAGKHPNQYATCRLCGRQVSRGPG [H4K], the protein stability index is 1.56.
On to RAGLHPNQYATCRLCGRQVSRGPG [H4L], for which the protein stability index was determined as 1.78.
In the case of RAGIHPNQYATCRLCGRQVSRGPG [H4I], the protein stability index worked out at 3.21.
As to RAGAHPNQYATCRLCGRQVSRGPG [H4A], the protein stability index came out at 2.76.
For the variant RAGYHPNQYATCRLCGRQVSRGPG [H4Y], the protein stability index came to 1.24.
For the variant RAGHHPNQYATCRLCGRQVSRVPG [G22V], the protein stability index is 1.77.
For RAGHHPNQYATCRLCGRQVSRCPG [G22C], the protein stability index is 3.07.
As to RAGHHPNQYATCRLCGRQVSRDPG [G22D], the protein stability index amounted to 1.64.
Take RAGHHPNQYATCRLCGRQVSRKPG [G22K]: the protein stability index was 2.68.
With RAGHHPNQYATCRLCGRQVSRSPG [G22S], the protein stability index was 2.53.
RAGHHPNQYATCWLCGRQVSRGPG [R13W]: the protein stability index stood at 1.98.
As for RAGHHPNQYATCDLCGRQVSRGPG [R13D], the protein stability index was 1.96.
For RAGHHPNQYATCMLCGRQVSRGPG [R13M] the value was 2.24.
For RAGHHPNQYAKCRLCGRQVSRGPG [T11K], the protein stability index is 2.56.
Take RAGHHPNQYARCRLCGRQVSRGPG [T11R]: the protein stability index is 2.01.
HAGHHPNQYATCRLCGRQVSRGPG [R1H]: the protein stability index turned out to be 2.13.
NAGHHPNQYATCRLCGRQVSRGPG [R1N]: the protein stability index was 2.85.
CAGHHPNQYATCRLCGRQVSRGPG [R1C]: the protein stability index is 3.55.
Consider EAGHHPNQYATCRLCGRQVSRGPG [R1E], for which the protein stability index is 2.53.
With PAGHHPNQYATCRLCGRQVSRGPG [R1P], the protein stability index is 1.04.
RAGHFPNQYATCRLCGRQVSRGPG [H5F]: the protein stability index was found to be 1.89.
As to RAGHMPNQYATCRLCGRQVSRGPG [H5M], the protein stability index worked out at 2.41.
For RAGHNPNQYATCRLCGRQVSRGPG [H5N], the protein stability index stood at 2.5.
As to RAGHKPNQYATCRLCGRQVSRGPG [H5K], the protein stability index was found to be 2.51.
As for RAGHGPNQYATCRLCGRQVSRGPG [H5G], the protein stability index amounted to 1.68.
For RAGHHPNQYCTCRLCGRQVSRGPG [A10C], the protein stability index worked out at 2.67.
As for RAGHHPNQYNTCRLCGRQVSRGPG [A10N], the protein stability index was 1.64.
On to RAGHHPNQYSTCRLCGRQVSRGPG [A10S], for which the protein stability index was 2.2.
RAGHHPNQYLTCRLCGRQVSRGPG [A10L]: the protein stability index was 2.12.
For RAGHHPNQYITCRLCGRQVSRGPG [A10I] the value was 1.43; for RAGHHPNQYKTCRLCGRQVSRGPG [A10K], 1.67.
With RMGHHPNQYATCRLCGRQVSRGPG [A2M], the protein stability index worked out at 1.97.
RAGHHPNQYATCRLCGRQVSTGPG [R21T]: the protein stability index is 1.78.
For the variant RAGHHPNQYATCRLCGRQVSYGPG [R21Y], the protein stability index came out at 1.85.
RAGHHPNQYATCRLCGRQVSNGPG [R21N]: the protein stability index came out at 2.88.
Next, RAGHHPNQYATKRLCGRQVSRGPG [C12K]: 2.4; RAGHHPNQYATIRLCGRQVSRGPG [C12I]: 2.64; RAGHHPNQYATLRLCGRQVSRGPG [C12L]: 2.27.
As for RAGHHPNQYATVRLCGRQVSRGPG [C12V], the protein stability index amounted to 2.49.
On to RAGHHPNQYATCRLCGRQVSRGPP [G24P], for which the protein stability index was 1.71.
Regarding RAGHHPNQYATCRLCGRQVSRGPC [G24C], the protein stability index is 1.53.
For RAGHHPNQYATCRLCGRQVSRGPW [G24W] the value was 1.97.
As to RAGHHPNQYATCRLCGRQVSRGPH [G24H], the protein stability index is 2.15.
On to RAGHHPNQYATCRLCGRQVSRGPM [G24M], for which the protein stability index amounted to 2.17.
Consider RAGHHPNQYATCRLCGRQVSRGPN [G24N], for which the protein stability index worked out at 2.42.
With RAGHHPNQYATCRLCGRQVSRGPS [G24S], the protein stability index amounted to 1.56.
Next, RAGHHPNQYATCRLCGRQVSRGPA [G24A]: 1.24.
Next, RAGHHHNQYATCRLCGRQVSRGPG [P6H]: 2.31; RAGHHPNQYATCRLDGRQVSRGPG [C15D]: 3.55.
Turning to RAGHHPNQYATCRLYGRQVSRGPG [C15Y], the protein stability index came to 1.42.
For the variant RAGHHPNQYATCRLNGRQVSRGPG [C15N], the protein stability index came out at 2.19.
Take RAGHHPNQYATCRLFGRQVSRGPG [C15F]: the protein stability index came to 1.7.
Consider RAGHHPNQYATCRLRGRQVSRGPG [C15R], for which the protein stability index turned out to be 2.83.
Take RAGHHPNQYATCRLLGRQVSRGPG [C15L]: the protein stability index amounted to 1.85.
For RAGHHPNQYATCRLPGRQVSRGPG [C15P] the value was 3.18; for RAGHHPNQYATCRLTGRQVSRGPG [C15T], 3.44; for RARHHPNQYATCRLCGRQVSRGPG [G3R], 2.09.
As to RAAHHPNQYATCRLCGRQVSRGPG [G3A], the protein stability index stood at 2.29.
For the variant RADHHPNQYATCRLCGRQVSRGPG [G3D], the protein stability index stood at 2.58.
As to RAEHHPNQYATCRLCGRQVSRGPG [G3E], the protein stability index is 2.06.
